As usually defined, the Kd is the free concentration of one partner at which half of the binding sites on the other are occupied at equilibrium, for simple one-to-one binding. Lower therefore signals higher affinity.

The chains are these.
B1: human LRP6 P1E1P2E2 (membrane distal fragment), biotinylated, for SPR (domain or fragment, UniProt O75581 20-630, looked up)
chain: APLLLYANRRDLRLVDATNGKENATIVVGGLEDAAAVDFVFSHGLIYWSDVSEEAIKRTEFNKTESVQNVVVSGLLSPDGLACDWLGEKLYWTDSETNRIEVSNLDGSLRKVLFWQELDQPRAIALDPSSGFMYWTDWGEVPKIERAGMDGSSRFIIINSEIYWPNGLTLDYEEQKLYWADAKLNFIHKSNLDGTNRQAVVKGSLPHPFALTLFEDILYWTDWSTHSILACNKYTGEGLREIHSDIFSPMDIHAFSQQRQPNATNPCGIDNGGCSHLCLMSPVKPFYQCACPTGVKLLENGKTCKDGATELLLLARRTDLRRISLDTPDFTDIVLQLEDIRHAIAIDYDPVEGYIYWTDDEVRAIRRSFIDGSGSQFVVTAQIAHPDGIAVDWVARNLYWTDTGTDRIEVTRLNGTMRKILISEDLEEPRAIVLDPMVGYMYWTDWGEIPKIERAALDGSDRVVLVNTSLGWPNGLALDYDEGKIYWGDAKTDKIEVMNTDGTGRRVLVEDKIPHIFGFTLLGDYVYWTDWQRRSIERVHKRSAEREVIIDQLPDLMGLKATNVHRVIGSNPCAEENGGCSHLCLYRPQGLRCACPIGFELISDMKTCIVP
modifications: biotin
notes: human LRP6 P1E1P2E2 domains, residues A20-P630; source: HEK293T, co-transfected with a BirA-ER plasmid
B2: mouse FZD5 cysteine rich domain (FZD5CRD), biotinylated, for SPR (domain or fragment, UniProt Q9EQD0 27-157, looked up)
chain: ASKAPVCQEITVPMCRGIGYNLTHMPNQFNHDTQDEAGLEVHQFWPLVEIHCSPDLRFFLCSMYTPICLPDYHKPLPPCRSVCERAKAGCSPLMRQYGFAWPERMSCDRLPVLGGDAEVLCMDYNRSEATT
modifications: biotin
notes: mouse Fzd5 cysteine rich domain, residues A27-T157, synthesised (Genscript); also called mouse FZD5CRD; source: HEK293T, co-transfected with a BirA-ER plasmid
B3: human LRP6 P3E3P4E4 (membrane proximal fragment), biotinylated, for SPR (domain or fragment, UniProt O75581 629-1244, looked up)
chain: VPEAFLLFSRRADIRRISLETNNNNVAIPLTGVKEASALDFDVTDNRIYWTDISLKTISRAFMNGSALEHVVEFGLDYPEGMAVDWLGKNLYWADTGTNRIEVSKLDGQHRQVLVWKDLDSPRALALDPAEGFMYWTEWGGKPKIDRAAMDGSERTTLVPNVGRANGLTIDYAKRRLYWTDLDTNLIESSNMLGLNREVIADDLPHPFGLTQYQDYIYWTDWSRRSIERANKTSGQNRTIIQGHLDYVMDILVFHSSRQSGWNECASSNGHCSHLCLAVPVGGFVCGCPAHYSLNADNRTCSAPTTFLLFSQKSAINRMVIDEQQSPDIILPIHSLRNVRAIDYDPLDKQLYWIDSRQNMIRKAQEDGSQGFTVVVSSVPSQNLEIQPYDLSIDIYSRYIYWTCEATNVINVTRLDGRSVGVVLKGEQDRPRAVVVNPEKGYMYFTNLQERSPKIERAALDGTEREVLFFSGLSKPIALALDSRLGKLFWADSDLRRIESSDLSGANRIVLEDSNILQPVGLTVFENWLYWIDKQQQMIEKIDMTGREGRTKVQARIAQLSDIHAVKELNLQEYRQHPCAQDNGGCSHICLVKGDGTTRCSCPMHLVLLQDELSCG
modifications: biotin
notes: human LRP6 P3E3P4E4 domains, residues V629-G1244; also called 3-4; source: HEK293T, co-transfected with a BirA-ER plasmid
B4: human LRP6 P3E3P4E4, for crystallography (domain or fragment, UniProt O75581 629-1244, looked up)
chain: B3 chain
notes: human LRP6 P3E3P4E4 domains, residues V629-G1244
B5: mouse Cachd1 extracellular domain (CACHD1ECD) (domain or fragment)
chain: DADFSILDEAQVLASQMRRLAAEELGVVTMQRIFNSLVYTEKISNGESEVQQLAKKIREKFNRYLDVVNRNKQVVEASYTAHLTSPLTAIQDCCTIPPSMMEFDGNFNTNVSRTVSCDRLSTTVNSRAFNPGRDLNSVLADNLKSNPGIKWQYFSSEEGIFTVFPAHKFRCKGSYEHRSRPIYVSTVRPQSKHIVVILDHGASVTDTQLQIAKDAAQVILSAIDEHDKISVLTVADAVRTCSLDQCYKTYLSPATSETKRKMSTFVSSVKPSDSPTQHAVGFHRAFQLIRSTSNSTRFQANTDMVIIYLSAGITSKDSSEEDKKATLRVINEENGFLNNSVMILTYALMNDGVTGLKELAFLRDLAEQNSGKYGIPDRTALPVIKGSMMVLNQLSNLETTVGRFYTNLPNRMIDEAVFSLPFSDEMGDGLIMTVSKPCYFGNLLLGIVGVDVNLAYILEDVTYYQDSLASYTFLIDDKGYTLMHPSLTRPYLLSEPPLHTDIIHYENIPKFELVRQNILSLPLGSQIITVPVNSSLSWHINKLRETGKEAYNVSYAWKMVQDTSFILCIVVIQPEIPVKQLKNLNTVPSSKLLYHRLDLLGQPSACLHFKQLATLESPTVMLSAGSFSSPYEHLSQPETKRMVEHYTAYLSDNTRLIANPGLKFSVRNEVMATSHVTDEWMTQMEMSSLNTYIVRRYIATPNGVLRIYPGSLMDKAFDPTRRQWYLHAVANPGLISLTGPYLDVGGAGYVVTISHTIHSSSTQLSSGHTVAVMGIDFTLRYFYKVLMDLLPVCNQDGGNKIRCFIMEDRGYLVAHPTLVDPKGHAPLEQQHITHKEPLVANDILNHPNFVKKNLCNSFSDRTVQRSYKFNTSLVGDLTNLVHGSHCSKYRLTRIPGTNAFVGIVNETCDSLAFCACSMVDRLCLNCHRMEQNECECPCECPLEVNECTGNLTNAENRNPSCEVHQEPVTYTAIDPGLQDALQQCVNSRCNQRMESGDCFGVLDCEWCVVDSDGKTHLDKSYCAPQKECFGGIVGAKSPYVDDMGAIGDEVITLNMIKS
notes: mouse Cachd1 extracellular domain, residues D50-S1107, in pNeoSec; also called mouse CACHD1ECD; source: deglycosylated with EndoF1 before crystallisation
B6: human FZD8 cysteine rich domain (FZD8CRD), biotinylated, for SPR (domain or fragment, UniProt Q9H461 28-158, looked up)
chain: ASAKELACQEITVPLCKGIGYNYTYMPNQFNHDTQDEAGLEVHQFWPLVEIQCSPDLKFFLCSMYTPICLEDYKKPLPPCRSVCERAKAGCAPLMRQYGFAWPDRMRCDRLPEQGNPDTLCMDYNRTDLTT
modifications: biotin
notes: human FZD8 CRD, residues A28-T158, synthesised (Genscript); also called human FZD8CRD; source: HEK293T, co-transfected with a BirA-ER plasmid

Common to all, as to details: both partners purified
The target of experiment [1] is B5. The experiment is described as follows: SPR; biotinylated FZD CRDs or LRP6 fragments immobilised (about 500-1,000 RU) on an SA sensor chip, CACHD1ECD as analyte at 100 μL/min; Biacore S200, 25 °C, 10 mM HEPES pH 7.5, 150 mM NaCl, 0.005% Tween 20; equilibrium response fitted to a one-site saturation binding model.
For experiment [2], the target named is B5. As to the kind of experiment: crystal structure; ternary complex: Cachd1ECD mixed with equal molar FZD5CRD and LRP6 P3E3P4E4; 0.1 M calcium acetate, 0.1 M sodium acetate pH 4.5, 10% (w/v) PEG 4000; 4.7 Å.
The target of experiment [3] is human FZD7 cysteine rich domain (FZD7CRD), biotinylated, for SPR (human, UniProt O75084 33-170, biotin). As to the kind of experiment: SPR; biotinylated FZD CRDs or LRP6 fragments immobilised (about 500-1,000 RU) on an SA sensor chip, CACHD1ECD as analyte at 100 μL/min; Biacore S200, 25 °C, 10 mM HEPES pH 7.5, 150 mM NaCl, 0.005% Tween 20; equilibrium response fitted to a one-site saturation binding model. In general terms: Surface plasmon resonance follows binding to a sensor surface in real time, without labels.

Consider B1, for which the Kd in experiment [1] worked out at 5860 nM. This counts as single-digit micromolar. In turn, B2 yielded a Kd in experiment [1] of 480 nM. With B3, in experiment [1], the equilibrium dissociation constant (Kd) came to 170 nM. On to B4, for which the binding result in experiment [2] was “binds”. B5 returned an equilibrium dissociation constant (Kd) in experiment [3] of 14200 nM.

In experiment [1], B6 gave a Kd of 950 nM.

The values above are taken from paper doi:10.1101/2022.05.16.492129, “Cachd1 is a novel Frizzled- and LRP6-interacting protein required for neurons to acquire left-right asymmetric character” (bioRxiv, 2022).
